# Laboratory results as given in the nanobody polyreactivity screen of Harvey et al. (2022).
# Test: yeast display, Sf9 membrane polyspecificity reagent, FACS + sequencing; frameworks hold sequencing errors
# Outline: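 Nanobodies from a synthetic yeast display library (Saccharomyces cerevisiae BJ5465), induced 36–48 hours with galactose, were stained 1 hour at 4 °C with 10% biotinylated, detergent-solubilized Sf9 membrane reagent, enriched on streptavidin microbeads, then FACS-sorted. Anti-HA (expression) and streptavidin (reagent binding) fluorescence set low and high (top ~1%) gates. Polyreactivity labels come from the gate of origin. Genes were colony-PCR amplified, MiSeq 2 × 250 sequenced and filtered by CDR length.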
row,Sequence,polyreactivity (PSR sort gate)
1,QVQLQEGGGGLVQAGGSLRLSCAASGYISYGDVMGWYRQAPGEERELVASIGLDATTNYADSVKGRFTISRDNAKITVYVQMNSLKPEDTAVYYCAADVGSGVLCGYWGQGTQMTVSS,high polyreactivity
2,QVQLVESGGGLVQAGGSLRLSCAASGSTLGANAMGWYRQAPGKERELVAAISISDGDTYYADSVKGRFTISRDNAKNPVYLQMNSLKPEDTAVYYCAADYWFQYRWYDYWGQGTQVTVSS,high polyreactivity
3,QVQLVESGGGLVQAGGSLRLSCAASGRTFAIYVMGWYRHAPGKERELVAAITRVGSTYADSVKGRFTISRDNAKNTVYLQMNSLKPEDTAVYYCAAVSGVRSGPWRYDYWGQGTQVTVSS,high polyreactivity
4,QVQLVESGGGLVQAGCRLRLSCAASGFIFCYNAMGLYRQAPGKERELVAAITTAGSTNYADSVKGRFTISRDNAKNTVYVQMNSLKPEDTAVYYCNKVQLRNRYPYRYGFGDVGYWGQGTQVTVSS,low polyreactivity
5,QVQLVESGGGLVQAGGSLRLSCAASGSIITGYAMGWYRQAPGKERELVAAITGNAGSTYYADSVKGRFTISRDNAKNTVYLQMNSLKPEDTAVYYCNARSWYVRVDYWGQGTQVTVSS,low polyreactivity
6,QVQLVESGGGLVQAGGSLRLSCAASGRIIGAYAMGWYRQAPGKERELVARISWSGGTTYYADSVKGRFTISRDNAKNTVYLQMDSLKPEDTAVYYCAARYSYYVTGGISKYDYWGQGTQVSVSS,low polyreactivity
7,QVQLEESGGGLVQAGGSLRLSCAASGFIFSSNAKGWYRQAPGKERELVAAISSSGGRTYYADSVKGRFTISRDNAKNPVYLQMNSLIPEYTAVYYCNADPRSLGSANDWGQGTQVTVSS,high polyreactivity
8,QVQLVESGGGLVQAGGSLRLSCAASGRIFKSYAMGWYRQAPGKERELVASISYTGGSTYYADSVKGRFTISRDNAKNTVYLQMNSLKPEDTAVYYCAAKRVRSAGSYGYWGQGTQVTVSS,low polyreactivity
9,QVQLVESGGGLVQAGGSLRLTCAASGYTLSVNAKGWSRQAPGKEMDLVATNDFGGGSTYYADSVKGRFTISRDNAKNTVYLQMNSLKREDTAVYYCATDGGAAWGRYYWDYGYWGQGTQVTVSS,low polyreactivity
10,QVKLVESGGGLVQAVGSLRLSCAPSGFTLGSYAMGCYRQAPGKESELVAAITYSGSRTYYADSVKGRFTISRDNAKNTVYLQMNSLKPEDTAVYYCAAVTHYGFDYWGQGTQVTVSS,high polyreactivity
11,QVQLVESGRGLVQAGGSLRLSCAASGRIFVAYTMGLYRQAPGKERELVASINRSGGTYYADSVKGRFTISRDNAKNTVYLQMNRLKPEDTAVYYCNAVFRSRSYFSKGDYWGQGTQVTVSS,high polyreactivity
12,QVQLVESGGGLVQAGGSLRLSCAASGRTYPYYAMGWYRQAPGKEREVVAAITYRGGSTSYADSVKGRFTISRDNAKNTVDLQMNSLKPEDTAVYYCAARTWNRRSPYDYWGQGTQVTVSS,high polyreactivity
13,QVQLVESGGGLVQAGGSLRLSCAASGRIFLFYAMGWYRQAPGKERELVAAISSTDDTYYADSVKGRFTISRDNAKNTVYLQMNSLKPEDTAVYYSAAYSIISQSEMYYRGQGTQVTVSS,low polyreactivity
14,QVQLVESGGGLVQAGGSHRLSCAASGFIFSYYAMGWYRQAPGKERELVAAITDSGGSTYYADSVKGRFTISRDNAKNTVYLQMNSLKPEDTAVYYCAATYWWAYVWAYSHVKSTNDYWGQGTQVTVSS,low polyreactivity
15,QVQLVESGGGLVQAGGSLRLSCAASGRTFKRYAMGWYRQAPGKERELVATISGNGGRTYYADSVKGRFTISRDNAKNTVYLQMNSLKPEDTAVYYCAALLYIRSVGYDYWGQGTQVTVSS,low polyreactivity
16,QVQLVESGGGLVQAGGSLRLSCAASGIIFGRNVMGWYRQAPGKERELVAAITRRGVNTYYADSVKGRFTISRDNAKNTVYLQMNSLKPEDTAVYYCAATWWQYDQGLHRYDYWGQGTQVTVSS,high polyreactivity
17,QVQLVESGGGLVQAGGSLRLSCAASGLIFVFYAMGWYRQAPGKERELVAAISRSGTSTYADSVKGRFTISRDNAKNTVYLQMNSLKPEDTAVYYCNAYRYYSPYGYWGQGTQVTVSS,low polyreactivity
18,QVQLVESGGGLVQAGGSLRLSCAASGSTFGSYAMRWYRQAPGKERELVAAITASGGSTYYADSVKGRFTISRDNAKNTVYLQMNSLKPEDTAVYYCAADTTYIPLSIEYDYWGQGTQVTVSS,low polyreactivity
19,QVQLVESGGGLVQAGGSLRLTCAASGFIFVTDAMGWYRQAPGKERELVAAITNSGGTTYYADSVKGRFTISRDNAKNTVYLQMNSLKPEDPAVYYCNKQWYTATYRESYYWGQGTQVTVSS,low polyreactivity
20,QVQLVESGGGLVQAGGSLRLSCDASGSIFSKYVMGCYRQAPGKERELVASITSGGSTNYADSVKGRFTISRDNAKNTVYLQMTSQKPEDTAVYFCAARAINTWYRSGVDDWCQGTQVTVSS,low polyreactivity
21,QVQLVESGGCLVQAGGSLRLSCAASGRIFFLYAMGWYRQAPGKERELVAAITWSADGTYYADSVKGRFTISRDNAKNTVYLQMNSLKPEDTAVYYCNADAYTTASSYNWWYYYWGQGTQVTVSS,low polyreactivity
22,QVQLVESGGGLVQAGGSLRLSCAPSGRTFRYYAMGWYRQAPGKERELVAAINWSGGSTYYADSVKGRFSISRDNAKNAVYLQKNSLKPEDTAVYYCAADEKMYITGYDYWGQGTQVTVSS,low polyreactivity

row,Sequence,polyreactivity (PSR sort gate)
1,QVQLVESGGGIVQAGGSLRLICDASGLIFTLYAMGWYRQAPGKETELVAAIDDGGRTYYADSVKGRFTISRDNAKNTVYLQMNSMIPEDTAVYYGAAVWLAVYSVWTDHHYDYWGQGTQVTVSS,low polyreactivity
2,QVQLVESGGGLVQAGGSLRLSCAASGSIFDVNAMGWYRQAPGKERELVAAISDSGGSTYYADSVKGRFTISRDNAKNTVYLQMNSLKPEDTAVYYCNADWYWYNYYDFDYWGQGTQVTVSS,low polyreactivity
3,QVQLVESGGGLVQAGGSLRLSCAASGRISQGYAMGWYRQAPGKERELVPGISRSGGSTYYADSVKGRFTISPDNAKNTVYLQMHSLKPEDTAVYYCAAQSWYGFPNYYWGQGSQVTVSS,high polyreactivity
4,QVQLVESGGGLVQAGGSLRLSCAASGRIFPFNAMGWYRQAPGKERELVAVITWDGGSTYYADSVKGRFTISRDNAKNTVYLQMNSLKPEDTAVYYCAADIRRYYPGYEYWGQGTQVTVSS,low polyreactivity
5,KVQRVDSGGGLVQAGGSLRLSCAASGSILGPYAMGWYRQAPGKERELVAGISGSGTRTYYADSVKGRFTISRDNAKNTVYLQMNSLKPEDTAVYYCAARYYSSWFRYPSYDYWGQGTQVTVSS,high polyreactivity
6,QVQLVESGGGLVQAGGSIRLSCAASGSIYKYNAMGWYRQAPGKERELVAAISSGGSTNYADSVKGRFTISRDNAKNTVYLQMNSLKPEDTAVYYCAKDRRRWYYTRDYWGQGTQVTVSS,low polyreactivity
7,QVQLVESGGGLVQAGGSLRLSCAASGSIFYYYAMVWSRQAPGKERELVAAISSGGRTYYADSVKGRFTISRDNAKYTVYLQMNSLKPEDTAVYYCAAVLRSNRGGYWGQGTQVTVSS,high polyreactivity
8,QVQLVESGGGLVQAGGSLRLSCAASGSIFWYNAMVWYRQAPGKERELVAAISYSGDRTYYADSVKGRFTISRDNAKYTVYLQMNSLKPEDTAFYYCAKAGTGFYNSWWEDYWGQGTQVTVSS,low polyreactivity
9,QVQLVESGGCLVQAGGSLRLSCAASGFTFIRYAMGWYRQAPGKERELVAAITVSGTRTYYADSVKGRFTISRDNAKNTVYLQMNSLKPEDTAVYYCNARDVYTGYGMGYWGQGSQVTVSS,high polyreactivity
10,QVQLVESGGGLVQAGGSLRLSCAASGYTFVDNAMGRYRQAPGKERELVAAINWDGASTYADSVKGRFTISRDNAKNTVYLQMNSLKPEDTAVYYCTASGKDIFNYVYQGYDYWGQGTQVTVSS,low polyreactivity
11,QVQLVESWGGLVQAGGSLRLSCAASGSTFRPYAMGWYRQAPGKERELVAAFRSGRTSYADSVKGRFTISRDNAKNTVYLQMNSLKPEDTAVYYCAKASRGGYYWGQGTQVTVSS,high polyreactivity
12,QVQLVESGGGLVQAGGSLRLSCAASGFIFGYNAMGWYRQAPGKERELVAAITSRGDRTYYADSVKGRFTISRDNAKNTVYLQMNSLKPEDTAVYYCAKATRGYRSPYGSIGYYYWGQGTQVTVSS,high polyreactivity
13,QVQLVESGGGLVQAGGSLRLSCAASGFTFYYYTMGGSRQAPGKERELVAAITSRGGNTYYADSVKGRFTISRDYAKNTVYLQMNSLNPEDTAVYYCAACRFSSRGYGYWGQGTQVTVSS,high polyreactivity
14,QVQLVESGGGLVQAGGSLRLSCAASGGTFVSYAMGWYRQAPGKERELVAAITYSGGSTYYADSVKGRFTISRDNAKNTVYLQMNSLKPEDTGVYYCAAPKFSYFSYSPRGKFKYEYWGQGTQVTVSS,low polyreactivity
15,QVQLVESGGGLVQAGGSLRLSCAASGIIFYRNTMGWYRQAPGKERELVAAIRRGGNTYYADSVKGRFTISRDNAKNTVYLQMNSLKPEDTAVYYCAASAGPRASYYYWGQGTQVTVSS,high polyreactivity
16,QVQLVESGGGLVQAGGSLRLSCAASGFTLEFSAMGWYRQAPGKERELVASISSGGRTNYADSVKGRFTISRDNAKNTVYLQMYSLKPVDTAVYYCAAEYRSWGRYRYRFNYWGQGTQVTVSS,high polyreactivity
17,QVQLVESGGGLVQAGGSLRLSCAASGSIFNVNAMGWYRQAPGKERELVAAISSGGNTNYADSVKGRFTFSRDNAKNTVYLQMNRLKPEDTAVYYCATGGYYSAIVYGGYDYWGQGTQVTVSS,low polyreactivity
18,QVQLVESGGGLVKAGGSLRLSCAASGNTFGRNVMGWYRPAPGKERELVAAINRGGSTTYADSVKGRFTISRDNAKNTVYLQMNSLKPEDTAVYYCNAEIRGQSYRFDYWGQGTQVTVSS,high polyreactivity
19,QVQLVESGGGLVQAGGSLRLSCAASGSIFDVNAMGWYRQAPGKERELVAAISDSGGSTYYADSVKGRYTISRDNAKNTVYLQMNSLKPEDTAVYYCNADWSWYNYYDFDYWGQGTQVTVSS,low polyreactivity
20,QVQLVESGGGLVQAGGSLRLSCAASGITFSYYAMGWYRQAPGKERELVAAINGGGSRTYYADSVKGRFTISRDNAKNTVYLQMNSLKPEDTAVYYCAAYSGQARGYDYWGQGTQVTVSS,high polyreactivity
21,QVQQPESGGGLVQAGGSLRLSCAASGTIFQLTVMGRSRQAPGKERELVASIDYGGNPNYADSVKGRFTISRDNAKNTVYLQMNCLKPEDTAVYYCAASSDSWTTHPYWGQGTQVTVSS,low polyreactivity
